Test system: GRE (glucocorticoid response element)-Luciferase reporter
Assay: GRE-luciferase reporter assay of transactivation potential of reconstructed GR alleles co-transfected into HEK 293 cells
Type: cell-based, human
From the text: An exemplary assay for determining the transactivation potential of a GR polypeptide is described below. The GR nucleic acid sequence encoding the GR polypeptide of interest can be cloned into a first vector (e.g., pcDNA4, Invitrogen, Carlsbad, Calif.). A second vector can be constructed to contain a reporter gene, e.g., the luciferase gene, under the control of a GRE. These two vectors can be co-transfected into a cell, e.g., a human embryonic kidney cell (HEK 293). Skilled practitioners will recognize that a number of cell types can be used to test whether a GR polypeptide is functional. The cell will then express the GR polypeptide encoded by the GR nucleic acid sequence on the first vector. […] The product of the reporter gene, e.g., luciferase, can then be detected and quantified using conventional methods. For example, when a luciferin substrate is added, luciferase will produce luminescence that can be detected and quantified. […]
The reconstructed GR allele expression plasmids described above were co-transfected with a GRE (glucocorticoid response element)-Luciferase reporter plasmid (Stratagene) using Fugene HD/6 (Roche) into HEK (human embryonic kidney) 293 cells, grown in Dulbecco's Modified Eagle Medium with 10% fetal bovine serum and 1% Penicillin/Streptomycin (Invitrogen.). […] The differences in luminescence were graphed and analyzed.

| Molecule | luciferase activity (transactivation potential), in words (FIG. 5) | fold change in luciferase activity relative to the luciferase activity induced by the reference human GR polypeptide (medium with 10% fetal bovine serum, FIG. 5, experiment repeated six times) |
| --- | --- | --- |
| allele 66-63: Full-length human GR with substitutions N72D, V321A, R460K, F749G (protein, UniProt P04150 1-777, looked up, variant N72D V321A R460K F749G) Glucocorticoid receptor: MDSKESLTPGREENPSSVLAQERGDVMDFYKTLRGGATVKVSASSPSLAVASQSDSKQRRLLVDFPKGSVSDAQQPDLSKAVSLSMGLYMGETETKVMGNDLGFPQQGQISLSSGETDLKLLEESIANLNRSTSVPENPKSSASTAVSAAPTEKEFPKTHSDVSSEQQHLKGQTGTNGGNVKLYTTDQSTFDILQDLEFSSGSPGKETNESPWRSDLLIDENCLLSPLAGEDDSFLLEGNSNEDCKPLILPDTKPKIKDNGDLVLSSPSNVTLPQVKTEKEDFIELCTPGVIKQEKLGTVYCQASFPGANIIGNKMSAISAHGVSTSGGQMYHYDMNTASLSQQQDQKPIFNVIPPIPVGSENWNRCQGSGDDNLTSLGTLNFPGRTVFSNGYSSPSMRPDVSSPPSSSSTATTGPPPKLCLVCSDEASGCHYGVLTCGSCKVFFKRAVEGQHNYLCAGKNDCIIDKIRRKNCPACRYRKCLQAGMNLEARKTKKKIKGIQQATTGVSQETSENPGNKTIVPATLPQLTPTLVSLLEVIEPEVLYAGYDSSVPDSTWRIMTTLNMLGGRQVIAAVKWAKAIPGFRNLHLDDQMTLLQYSWMFLMAFALGWRSYRQSSANLLCFAPDLIINEQRMTLPCMYDQCKHMLYVSSELHRLQVSYEEYLCMKTLLLLSSVPKDGLKSQELFDEIRMTYIKELGKAIVKREGNSSQNWQRFYQLTKLLDSMHEVVENLLNYCFQTFLDKTMSIEGPEMLAEIITNQIPKYSNGNIKKLLFHQK | very low level |  |
| allele 66-62: Full-length human GR with substitutions N72D, V321A, N766S (protein, UniProt P04150 1-777, looked up, variant N72D V321A N766S) Glucocorticoid receptor: MDSKESLTPGREENPSSVLAQERGDVMDFYKTLRGGATVKVSASSPSLAVASQSDSKQRRLLVDFPKGSVSDAQQPDLSKAVSLSMGLYMGETETKVMGNDLGFPQQGQISLSSGETDLKLLEESIANLNRSTSVPENPKSSASTAVSAAPTEKEFPKTHSDVSSEQQHLKGQTGTNGGNVKLYTTDQSTFDILQDLEFSSGSPGKETNESPWRSDLLIDENCLLSPLAGEDDSFLLEGNSNEDCKPLILPDTKPKIKDNGDLVLSSPSNVTLPQVKTEKEDFIELCTPGVIKQEKLGTVYCQASFPGANIIGNKMSAISAHGVSTSGGQMYHYDMNTASLSQQQDQKPIFNVIPPIPVGSENWNRCQGSGDDNLTSLGTLNFPGRTVFSNGYSSPSMRPDVSSPPSSSSTATTGPPPKLCLVCSDEASGCHYGVLTCGSCKVFFKRAVEGQHNYLCAGRNDCIIDKIRRKNCPACRYRKCLQAGMNLEARKTKKKIKGIQQATTGVSQETSENPGNKTIVPATLPQLTPTLVSLLEVIEPEVLYAGYDSSVPDSTWRIMTTLNMLGGRQVIAAVKWAKAIPGFRNLHLDDQMTLLQYSWMFLMAFALGWRSYRQSSANLLCFAPDLIINEQRMTLPCMYDQCKHMLYVSSELHRLQVSYEEYLCMKTLLLLSSVPKDGLKSQELFDEIRMTYIKELGKAIVKREGNSSQNWQRFYQLTKLLDSMHEVVENLLNYCFQTFLDKTMSIEFPEMLAEIITNQIPKYSSGNIKKLLFHQK |  | 5.5 fold |

— patent publication US20120040938A1, “GLUCOCORTICOID RECEPTOR ALLELES AND USES THEREOF” (SHRINERS HOSPITAL FOR CHILDREN, priority 2009, published 2012)
